Data from US20030017169A1, “Controlled release systems for polymers” (priority 2000, published 2003).
Read-outs that look alike come from different tables or passages of the source.

Experiments:
[1] = Expected pharmacokinetics of soluble and/or released interferon α in the mouse; assay type: in vivo; conditions: for a 20 g mouse
Protocol: Animal Study. […] Mice used for this study were Balb/c transgenic for the human Interferon α2b gene (Braun et al. 1997, Palleroni et al. 1997). Three mice were used for each formulation. As a, control, one set of mice was injected with 50 μg of soluble human IFN-α001. […] Thus, for a 20 g mouse, the volume of distribution should be ˜8 ml. At 24 hours after administration, given a half-life of 1 hr, we would predict that the serum concentration remaining from a 50 μg dose would be ˜1 pg/ml. In practice, all of the sera of this group of mice were below the detection limit of the ELISA of 40 pg/ml. To test our formulation strategy, we produced 5 different interferon formulations. Human IFN-α2b, human IFN-α001, human IFN-α012, and murine IFN-α formulations were allowed to mature for 18 hr. A fifth formulation contained human IFN-α001 and matured for 3 hours prior to centrifugation. The human IFN-α formulations were produced at 0.4 mg/ml protein with 25 mM NaOAc pH 5.4, 6 mM Tris pH 8.0, 50 mM NaCl, 1.25% glycerol, with particle formation intitiated by addition of N-propanol to 16%. […] Serum was collected at 24 hours post injection, mice in all groups recieving a human interferon had immunoreactive interferon in their serum as determined by ELISA (PBL Multispecies ELISA # 41105). […] No interferon was detected at the 96 hours or 168 hours time points.

[2] = mouse; expected from published studies and own work; cited from earlier work

In the case of interferon α, the volume of distribution [1] is listed as roughly 8 mL and the volume of distribution [2] is listed as “about 0.4 ml/g”.
